Publication PMC8040517 (The Journal of Experimental Medicine, 2021)

What was measured:
Test in all cases: crystal structure
Settings in all cases: both partners purified
[1] = biological target: TBEV^FE EDIII-His-Avitag (envelope domain III of tick-borne encephalitis virus, Far Eastern subtype, strain … (Tick-borne encephalitis virus Far …, UniProt P07720, strain))
[2] = biological target: TBEV^Si EDIII (envelope domain III of tick-borne encephalitis virus, Siberian subtype, strain Vasilchenko), … (Tick-borne encephalitis virus Siberian …, UniProt Q9WBS4, strain)
[3] = biological target: TBEV^WE EDIII-His-Avitag (envelope domain III of tick-borne encephalitis virus, Western European subtype, … (Tick-borne encephalitis virus Western …, UniProt P14336))

Measured: binding result

B1: T025 Fab (antigen-binding fragment of human antibody T025, IGVH3–30/IGVK3–15) (Fab, V domains shown)
VH: QVQLVESGGGVVQPGRSLRLSCAASGFTFSNYGMHWVRQAPGKGLDWVAVISYDAISKSYADSVEGRFTISRDNSKNTLYLQMNSLRAEDSAVYYCAKSPTAIDPPFDYWGQGTLVTVSS
VL: EIVMTQSPATLSVSPGERATLSCWASQSVSSNLAWYQQKPGQAPRLLIYGASTRATGIPARFSASGSGTEFTLTISSLQSEDFAVYYCQQYNNWPPRFGQGTKVEIK
notes: not shown: 6XHis, C-terminal, kept
binds: all assays above
